# Results published in the supplement of paper PMC11865577.
# Key:
# Test in all cases: pull-down binding Z-score (relative to library population); higher = stronger binding
# [1] = system: TO-3-N3 (biotin conjugate); conditions: RNA library: Library-2
# In short: (§1)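 The RNA library, end-labelled with Cy5 or Cy3, was heat-folded in phosphate/NaCl/KCl buffer, and 1 μg was incubated at 25 °C for 60 min with streptavidin beads carrying 100 pmol of biotin-conjugated small molecule. Hot SDS released the bound RNA, which was then hybridised to a DNA barcode microarray for 20 h at 55.5 °C. For scoring binding, signal from beads alone was subtracted, replicate barcoded probes were averaged after discarding the highest and lowest, and each value was turned into a Z-score from the library mean and standard deviation.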
# [2] = system: TO-3-N3-2 (biotin conjugate); conditions: RNA library: Library-2
# In short: as §1
# [3] = system: G-clamp-N3 (biotin conjugate); conditions: RNA library: Library-1 (pre-miRNA loops + repeats)
# In short: as §1
# TO-N3 (biotin conjugate) = conditions: RNA library: Library-2
# In short: as §1
# [4] = system: TO-N3-2 (biotin conjugate); conditions: RNA library: Library-2
# In short: as §1
Sequence,pull-down binding Z-score [1],pull-down binding Z-score [2],pull-down binding Z-score [3],pull-down binding Z-score (TO-N3 (biotin conjugate)),pull-down binding Z-score [4]
CUAACAGGCCCCUGUCACCAUUAG [hsa-mir-5579],-0.463,-0.144,-0.762,-0.073,0.236
CUAAGCUAUGGACUGCUAUGGACUGCUAG [hsa-mir-4473],-0.193,0.196,-0.249,0.172,0.578
CUAAUCUCUUAGCACUGAAGAUUAG [hsa-mir-4671],0.0266,-0.253,-0.0111,-0.125,-0.473
CUACAUCGUGGAAGCCAGCACCAUGCAG [hsa-mir-455],0.731,-0.206,0.169,0.826,0.773
CUACUAGUUUGUAGUAGUUCGUAGCAG [hsa-mir-3919],-0.438,0.295,0.56,-0.197,0.637
CUACUCAAGGCUAG [hsa-mir-4266],1.32,0.132,-0.163,1.35,-0.0352
CUAGUAUGUCUCAUCCCCUACUAG [hsa-mir-151a],-0.144,-0.201,0.0263,-0.343,0.072
CUAUCCUUCCCUUGGAAAAUGAUCUGAG [hsa-mir-4770],-0.188,-0.189,-0.925,-0.245,-5.12e-05
CUAUGGCCCCCCUCCUCUCUGAAAGCAAGGCCACUUG [hsa-mir-8081],0.3,0.282,-1.13,0.738,0.982
CUAUUCAGAAAUGUGGCCUGUGAUUAG [hsa-mir-1295a],-0.00311,0.231,0.22,-0.0755,0.169
CUCAACUCUUGGUCCUCUGAG [hsa-mir-3165],-0.385,0.0789,-0.955,-0.316,0.545
CUCAAGUCCUCUAUUUCUUUGAA [hsa-mir-7978],-0.712,-0.54,-1.16,-0.484,0.0517
CUCAAUGUAGUCUUGUAAGGAACAGGUUGAAG [hsa-mir-595],-0.166,0.34,0.711,0.268,0.908
CUCACAUGGAGUAAAAUAUGAU [hsa-mir-3134],0.744,0.194,-1.71,0.711,0.206
CUCACCAUAGUGGUGGA [hsa-mir-1288],-0.33,-0.646,-1.2,-0.412,-0.588
CUCACGUGUGCCUGCCUGUGAG [hsa-mir-339],-1.01,-0.521,-0.747,-0.555,1.55
CUCACUGCAGAAUUAUUUUGAG [hsa-mir-4524a],-0.62,-0.267,0.934,-0.869,-0.99
CUCAGAGGGCUGAAGUGGUUGUGGGGAGGGGCUUCUGGG [hsa-mir-4296],4.7,4.91,1.39,4.83,4.01
CUCAGCAUGUUGAGCCCUGUCUCUGGGGAGCUGAC [hsa-mir-6505],0.254,-0.142,1.48,0.597,0.878
